Target: 2xMyc‐PAK6 (p21‐activated kinase 6) (human) (UniProt Q9NQU5)
Assay: co-IP; lysates of HEK293T cells co-transfected with Flag-LRRK2 and Myc-PAK6 or Myc-14-3-3; immunoprecipitation with anti-Flag or with anti-Myc; washes in lysis buffer (50 mM Tris pH 7.5, 1% Triton X-100) with 0.25 M NaCl; immunoblot

Chain of UniProt Q9NQU5 (Q9NQU5 whole entry): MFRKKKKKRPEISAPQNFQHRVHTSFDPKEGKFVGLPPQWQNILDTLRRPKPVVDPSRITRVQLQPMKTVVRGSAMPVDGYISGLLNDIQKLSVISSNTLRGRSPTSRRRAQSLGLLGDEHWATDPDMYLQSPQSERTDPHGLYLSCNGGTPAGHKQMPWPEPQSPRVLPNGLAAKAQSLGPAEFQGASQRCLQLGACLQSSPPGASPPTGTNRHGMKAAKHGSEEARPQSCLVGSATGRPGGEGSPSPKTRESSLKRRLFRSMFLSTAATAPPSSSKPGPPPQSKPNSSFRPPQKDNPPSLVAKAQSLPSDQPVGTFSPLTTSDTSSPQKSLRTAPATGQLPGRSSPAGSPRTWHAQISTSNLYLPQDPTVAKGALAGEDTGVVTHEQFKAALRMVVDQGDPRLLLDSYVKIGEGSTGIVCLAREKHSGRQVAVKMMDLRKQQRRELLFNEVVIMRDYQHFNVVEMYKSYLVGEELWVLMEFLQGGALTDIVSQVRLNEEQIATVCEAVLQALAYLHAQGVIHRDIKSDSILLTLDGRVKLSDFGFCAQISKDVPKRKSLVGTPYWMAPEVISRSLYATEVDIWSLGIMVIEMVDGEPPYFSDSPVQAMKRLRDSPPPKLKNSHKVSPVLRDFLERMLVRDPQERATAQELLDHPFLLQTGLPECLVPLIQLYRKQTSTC

fold of LRRK2 bound, against 2xMyc‐14‐3‐3 zeta: 3.5 fold
Substance: 3xFlag‐LRRK2 wild type, Q5S007 1-2527

— paper PMC4715492
